In article doi:10.1101/2025.06.20.660733 (bioRxiv, 2025):

B1: HB420 (human IgG1) (antibody, V domains shown)
VH: EVQLVESGAEVKKPGSSVKVSCMASGGSFGSYGFSWVRQAPGQGLEWMGGIIPLFDTPNYAQKFQGRVTITADASTSTVYMELSSLRSEDTAVYYCARDSLPYGDQNYYYGMHVWGQGTTVTVSS
VL: QSALTQPASLSGSPGQSITISCSGSSSDIGDYNYVSWYQQHPGKAPKLIIYDVTNRPSGVSDRLSGSKSGTTASLTISGLQAEDEADYYCSSYGGNYNLVFGGGTKLTVL
B2: HB420 fragment antigen-binding (Fab) (Fab, V domains shown)
VH: B1 VH
VL: B1 VL
B3: HB420 with only heavy chain SHMs reverted (Fab) (Fab, V domains shown)
VH: EVQLVQSGAEVKKPGSSVKVSCKASGGTFSSYAISWVRQAPGQGLEWMGGIIPIFGTANYAQKFQGRVTITADESTSTAYMELSSLRSEDTAVYYCARDSLPYGDQNYYYGMHVWGQGTTVTVSS
VL: B1 VL
B4: HB420 with only light chain SHMs reverted (Fab) (Fab, V domains shown)
VH: B1 VH
VL: QSALTQPASVSGSPGQSITISCTGTSSDVGGYNYVSWYQQHPGKAPKLMIYDVSNRPSGVSNRFSGSKSGNTASLTISGLQAEDEADYYCSSYTSNYNLVFGGGTKLTVL
B5: HB420 with all SHMs reverted (Fab) (Fab, V domains shown)
VH: B3 VH
VL: B4 VL

Assays:
[1] = molecular target: neuraminidase of A/Wyoming/3/2003 (H3N2), recombinant head domain (Influenza A virus A/Wyoming/3/2003 …, UniProt Q595Z6, strain); assay: cell-based or functional assay
[2] = molecular target: neuraminidase of A/Michigan/45/2015 (H1N1), recombinant head domain (Influenza A virus A/Michigan/45/2015 …, UniProt A0A0X9QTS2, strain); assay: ELISA; settings: one partner purified
[3] = molecular target: neuraminidase of A/Moscow/10/1999 (H3N2), recombinant head domain (Influenza A virus A/Moscow/10/1999 …, strain); assay: BLI; settings: both partners purified

Binder	NA inhibition of recombinant NA by enzyme-linked lectin assay (ELLA), IC50 [1]	binding result [2]	Kd [3]
B1	0.19 µg/mL	no binding	
B2			< 1 nM
B3			1.1 nM
B4			< 1 nM
B5			1.8 nM
